{
  "source": "paper PMC9841404",
  "about": "“Werner syndrome protein works as a dimer for unwinding and replication fork regression”",
  "binders": {"B1": {"name": "Forked DNA (Figure 1A) (structured_DNA)", "DNA 1": "GAGAAGCACGCTGCCGAATTCTACCAGTGCCTTGCTAGGACATGTTTGCCTTTTTTTTTTTTTTTTTTTTTTTTTTTTTT", "DNA 2": "TTTTTTTTTTTTTTTTTTTTTTTTGGCAAACATGTCCTAGCAAGGCACTGGTAGAATTCGGCAGCGTGCTTCTC", "modifications": "amino C6 dT at dye sites"}, "B2": {"name": "Replication fork with 15 bp non-homologous region (Figure 3D) (structured_DNA)", "DNA 1": "TCGACAGGTCATGGCCGTACATGATATCCTCGAGCGGTCCTGTTGC", "DNA 2": "TCAGAGTGTGCAACAGGACCGCTCGAGGATATCATGTACGATAGCTTGGCCGCAT", "DNA 3": "TGTTAACCCTAACCCTAAGAATTCGGCTTAAGTGAGTGTGCAACAGGACCGCTCGAGGATATCATGTACGGCCATGACCTGTCGA", "DNA 4": "ATGCGGCCAAGCTATCGTACATGATATCCTCGAGCGGTCCTGTTGCACACTCTGAATAGCCGAATTCTTAGGGTTAGGGTTAACA", "modifications": "amino C6 dT at dye sites of the daughter strands"}, "B3": {"name": "Model replication fork (Figure 1B) (structured_DNA)", "DNA 1": "TCGACAGGTCATGGCCGTACATGATATCCTCGAGCGGTCCTGTTGCAACTTA", "DNA 2": "TCAGAGTGTTAAGTTGCAACAGGACCGCTCGAGGATATCATGTACGGCCATGACCTGTCG", "DNA 3": "TGTTAACCCTAACCCTAAGAATTCGGCTTAAGTGAGTGTTAAGTTGCAACAGGACCGCTCGAGGATATCATGTACGGCCATGACCTGTCGA", "DNA 4": "CGACAGGTCATGGCCGTACATGATATCCTCGAGCGGTCCTGTTGCAACTTAACACTCTGAATAGCCGAATTCTTAGGGTTAGGGTTAACA", "modifications": "amino C6 dT at dye sites of the daughter strands"}},
  "key": {"[1]": {"biological_target": "T1, f:GFP-WRN (Werner syndrome protein) (Homo sapiens, UniProt Q14191 1-1432)", "T1 sequence (Q14191 whole entry)": "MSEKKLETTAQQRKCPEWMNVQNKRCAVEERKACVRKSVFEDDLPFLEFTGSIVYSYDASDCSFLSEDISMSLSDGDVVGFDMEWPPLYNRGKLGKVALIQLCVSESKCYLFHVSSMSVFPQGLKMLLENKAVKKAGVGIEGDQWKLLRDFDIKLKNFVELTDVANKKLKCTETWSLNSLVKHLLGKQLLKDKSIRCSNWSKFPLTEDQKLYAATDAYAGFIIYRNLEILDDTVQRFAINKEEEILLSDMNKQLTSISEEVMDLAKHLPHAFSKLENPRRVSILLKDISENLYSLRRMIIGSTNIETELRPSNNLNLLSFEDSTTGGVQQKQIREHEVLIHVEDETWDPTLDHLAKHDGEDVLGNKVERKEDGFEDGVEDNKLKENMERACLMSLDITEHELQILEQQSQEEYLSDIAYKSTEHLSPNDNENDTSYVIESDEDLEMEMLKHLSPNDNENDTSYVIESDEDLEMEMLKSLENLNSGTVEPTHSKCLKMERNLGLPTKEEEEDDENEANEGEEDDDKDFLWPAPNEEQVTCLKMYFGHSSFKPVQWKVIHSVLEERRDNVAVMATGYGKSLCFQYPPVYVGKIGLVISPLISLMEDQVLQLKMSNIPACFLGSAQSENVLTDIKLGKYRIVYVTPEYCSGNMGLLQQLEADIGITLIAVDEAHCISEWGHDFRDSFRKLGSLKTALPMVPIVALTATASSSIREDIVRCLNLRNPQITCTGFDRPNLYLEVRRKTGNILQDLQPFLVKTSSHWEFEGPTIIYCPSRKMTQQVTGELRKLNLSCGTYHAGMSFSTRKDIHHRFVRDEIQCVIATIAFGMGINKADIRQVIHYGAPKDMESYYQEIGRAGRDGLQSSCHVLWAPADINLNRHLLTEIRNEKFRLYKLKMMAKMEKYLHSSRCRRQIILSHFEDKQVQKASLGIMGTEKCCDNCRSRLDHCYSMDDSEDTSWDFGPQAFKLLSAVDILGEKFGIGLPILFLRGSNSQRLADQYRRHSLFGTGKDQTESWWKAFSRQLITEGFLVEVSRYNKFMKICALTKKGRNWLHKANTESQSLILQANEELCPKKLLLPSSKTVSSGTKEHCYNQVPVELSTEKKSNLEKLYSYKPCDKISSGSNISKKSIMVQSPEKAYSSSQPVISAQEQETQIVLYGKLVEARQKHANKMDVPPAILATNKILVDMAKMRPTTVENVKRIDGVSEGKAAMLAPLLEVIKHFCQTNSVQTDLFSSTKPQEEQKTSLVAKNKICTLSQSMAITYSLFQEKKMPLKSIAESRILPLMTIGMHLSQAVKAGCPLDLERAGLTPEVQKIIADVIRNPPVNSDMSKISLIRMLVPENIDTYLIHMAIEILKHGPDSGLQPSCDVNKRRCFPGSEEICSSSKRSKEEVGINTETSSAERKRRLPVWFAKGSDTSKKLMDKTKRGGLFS", "assay": "single-molecule TIRF GFP photobleaching; no ATP; dimer preferred, heterogeneous up to 4 steps; 1 nM RPA did not change conclusion; Binding buffer, pH and temperature not in the material; 24 nM GFP-WRN in the forked-DNA unwinding assay (1 nM RPA); NaCl tested at 15, 50 and 150 mM on the replication fork; GFP imaging without oxygen scavenger", "conditions": "protein: recombinant; tags: N-terminal FLAG and GFP; chain copies: 2; label: Cy3 and Cy5 in the single-stranded overhangs; 5' biotin on bottom strand; fork 1:2, 3' ssDNA arm on top and 5' ssDNA arm on bottom"}, "[2]": {"biological_target": "T1, f:GFP-WRN (Werner syndrome protein)", "assay": "single-molecule TIRF GFP photobleaching; 1 mM ATP-Mg2+, 2 min; active molecules dimeric; Binding buffer, pH and temperature not in the material; 24 nM GFP-WRN in the forked-DNA unwinding assay (1 nM RPA); NaCl tested at 15, 50 and 150 mM on the replication fork; GFP imaging without oxygen scavenger", "conditions": "protein: recombinant; tags: N-terminal FLAG and GFP; chain copies: 2; label: Cy3 and Cy5 FRET pair; 5' biotin on leading parent; four-strand fork 1:3 2:4 3:4; heterologous distal arm ends"}, "[3]": {"biological_target": "T1, f:GFP-WRN (Werner syndrome protein)", "assay": "single-molecule TIRF GFP photobleaching; no ATP; tetramer (binomial n=4); Binding buffer, pH and temperature not in the material; 24 nM GFP-WRN in the forked-DNA unwinding assay (1 nM RPA); NaCl tested at 15, 50 and 150 mM on the replication fork; GFP imaging without oxygen scavenger", "conditions": "protein: recombinant; tags: N-terminal FLAG and GFP; chain copies: 2; label: Cy3 and Cy5 FRET pair; 5' biotin on leading parent; four-strand fork 1:3 2:4 3:4; 11-nt leading gap, 2-nt lagging gap; heterologous bases near junction"}},
  "data": [
    {"binder": "B1", "values": [
      {"measurement": "binding result", "setting": "[1]", "value": "binds"}
    ]},
    {"binder": "B2", "values": [
      {"measurement": "binding result", "setting": "[2]", "value": "binds"}
    ]},
    {"binder": "B3", "values": [
      {"measurement": "binding result", "setting": "[3]", "value": "binds"}
    ]}
  ]
}
